Drawing on patent US20200270365A1 (JIANGSU HENGRUI MEDICINE, published 2020), this text covers IC50, EC50 and Kd for seven molecules.

The target in assay [1] is T1, PCSK9 protein inserted with biotin receiving peptide BP15 and His-tag: PCSK9-BP15-His6 (human, UniProt Q8NBP7 153-692; A8T644 31-152, biotin on the BP15 biotin receiving peptide (labeled during the expression)).
T1 construct: also called WT PCSK9; PCSK9 WT
As to the kind of experiment: competition ELISA, LDLR-FC coated, biotin PCSK9 + antibody. As for the experimental part: The blocking ability of PCSK9 antibodies according to the present invention for the binding of LDLR-FC (produced in-house, with sequence of SEQ ID NO: 8) and PCSK9 (SEQ ID NO: 5) was tested by measuring the amount of PCSK9 binding to LDLR in the presence of the antibodies.
(§1) LDLR-FC was diluted to 5 μg/ml with phosphate buffer and was added into the 96-well ELISA plate, kept at 4° C. overnight. The plate was washed and then blocked with Tris buffer (including 0.9 mM CaCl₂, 0.05% Tween 20 and 5% skim milk) at 37° C. for 2 hours. Then the plate was washed and 100 μl/well of mixture of biotin-labeled PCSK9 (diluted to 2 μg/ml with Tris buffer containing 0.9 mM CaCl₂, 0.05% Tween 20 and 1% skim milk) and antibody samples (diluted with Tris buffer containing 0.9 mM CaCl₂, 0.05% Tween 20 and 1% skim milk) was added and incubated at 37° C. for 1 hour. Then the plate was washed again and horseradish peroxidase-streptavidin (sigma, CAT #S2438) was added and incubated at 37° C. for 1 hour. Then the plate was washed and tetramethyl brenzidine solution was added for development. Finally, the stop buffer was added and OD450 value was measured on the Microplate reader, then IC50 value was calculated.
In general terms: In an ELISA, binding on a coated surface is turned into a signal by an enzyme label.

Assay [2] deals with T1, PCSK9 protein inserted with biotin …. As to the kind of experiment: ELISA, biotin PCSK9 on streptavidin plate. As for the experimental part: The binding ability of anti-PCSK9 antibodies of the present invention to PCSK9 protein (WT PCSK9, SEQ ID NO: 5) was detected by measuring the amounts of antibodies binding to PCSK9 immobilized on the ELISA plate.
(§2) Streptavidin (sigma, CAT #S4762) was diluted to 2 μg/ml with PBS and was added into a 96-well ELISA plate, at 4° C. for overnight. The plate was washed and then was blocked with Tris buffer (including 0.9 mM CaCl₂, 0.05% Tween 20 and 5% skim milk) at 37° C. for 2 hours. Then the plate was washed again and 100 μl/well of biotin-labeled PCSK9 (produced in-house, diluted with Tris buffer containing 0.9 mM CaCl₂, 0.05% Tween 20 and 1% skim milk) was added and incubated at 37° C. for 1 hour. After the wash step various concentrations of diluted PCSK9 antibody samples was added to the plate and incubated at 37° C. for 1 hour. […] Then the plate was washed and tetramethyl brenzidine solution was added for development. Finally, the stop buffer was added and the OD450 value was measured on the Microplate reader, and then EC50 was calculated.

In assay [3] the target is T2, PCSK9 D374Y mutant protein inserted with biotin receiving peptide BP15 and His-tag: PCSK9-D374Y-BP15-His6 (human, UniProt Q8NBP7 153-692; A8T644 31-152, biotin on the BP15 biotin receiving peptide).
T2 construct: also called PCSK9-Y; mutant PCSK9
As to the kind of experiment: competition ELISA, LDLR-FC coated, biotin PCSK9-Y + antibody. As for the experimental part: The blocking ability of PCSK9 antibodies according to the present invention for the binding of LDLR-FC and PCSK9-Y (mutant PCSK9, SEQ ID NO: 6) was tested by measuring the amount of PCSK9-Y binding to LDLR in the presence of the antibodies.
as §1, with “LDLR-FC (produced in-house, with sequence of SEQ ID NO: 8)” for “LDLR-FC”, “to 2” for “to 5”, “plate,” for “plate, kept”, “biotin-labeled mutant” for “biotin-labeled”, “to 1” for “to 2”

Assay [4] addresses T2, PCSK9 D374Y mutant protein inserted …. Put plainly: ELISA, biotin PCSK9-Y on streptavidin plate. As for the experimental part: The binding ability of anti-PCSK9 antibodies of the present invention to PCSK9-Y protein (mutant PCSK9, SEQ ID NO: 6) was detected by measuring the amounts of antibodies binding to PCSK9-Y immobilized on the ELISA plate.
as §2, with “hours. The” for “hours. Then the”, “washed” for “washed again”, “biotin-labeled PCSK9-Y” for “biotin-labeled PCSK9”, “wash step,” for “wash step”, “samples were” for “samples was”

For assay [5], the target named is T3, PCSK9 with His-tag: PCSK9-His6 (human, UniProt Q8NBP7 153-692; A8T644 31-152).
T3 construct: also called huPCSK9; human PCSK9 antigen
Put plainly: SPR Biacore, antibody captured by human Fab capture molecule on CM5, PCSK9-His6 mobile phase. An excerpt:
According to the method described in the human Fab capture kit (Cat. #28-9583-25, GE), the human Fab capture molecule was covalently linked to the CM5 biochip (Cat. #BR-1000-12, GE) so that the PCSK9 antibodies of the present invention were affinity captured. Then, human PCSK9 antigen (PCSK9 with His tag: PCSK9-His6, SEQ ID NO: 1) flowed through the surface of the biochip, and the reaction signal was detected in real time using a Biacore instrument to obtain the association and dissociation curves. Finally, the affinity values were obtained by fitting and are shown at table 16 below. After each cycle of dissociation was finished, the biochip was washed and regenerated with regeneration solution in the human Fab capture kit (GE).

B1: h011-3191 (antibody, V domains shown)
VH: QVQLVQSGAEVKKPGASVKVSCKASGYTFTGYTIHWVRQAPGQGLEWMGYIVPSSTYTKFNQKFKDRVTMTRDTSISTAYMELSRLRSDDTAVYYCARERIYSNYWFFDVWGQGTTVTVSS
VL: DIVMTQSPSSLSASVGDRVTITCKASQNVYTAVAWYQQKPGKSPKLLIYSASNRYTGVPSRFSGSGSGTDFTLTISSLQPEDFATYFCQQYSSYPYTFGGGTKVEIK
As a reminder, the IC50 is the concentration at which inhibition is half-maximal. In general, EC50 refers to the concentration giving half of the maximal effect. Higher therefore signals a need for much substance. On to B1, for which the IC50 in assay [1] amounted to 0.74 µg/mL; in assay [3], 0.226 µg/mL. For the same molecule, the EC50 in assay [2] stood at 0.00631 µg/mL; in assay [4] it was 0.0066 µg/mL.

B2: h011-3193 (antibody, V domains shown)
VH: QVQLVQSGAEVKKPGASVKVSCKASGYTFTGYTIHWVRQAPGQGLEWMGYINPSSTYTKFNQKFKDRVTMTRDTSISTAYMELSRLRSDDTAVYYCARERIYSNYWFFDVWGQGTTVTVSS
VL: DIVMTQSPSSLSASVGDRVTITCKASQNVYTAVDWYQQKPGKSPKLLIYSASNRYTGVPSRFSGSGSGTDFTLTISSLQPEDFATYFCQQYSSYPYTFGGGTKVEIK
In the case of B2, the results for the IC50 in assay [1] and in assay [3] were 0.621 µg/mL and 0.871 µg/mL, respectively. Also, the results for the EC50 in assay [2] and in assay [4] were 0.0047 µg/mL and 0.0221 µg/mL, respectively.

B3: h011-3194 (antibody, V domains shown)
VH: QVQLVQSGAEVKKPGASVKVSCKASGYTFTGYTIHWVRQAPGQGLEWMGYINPSSTYTKFNQKFKDRVTMTRDTSISTAYMELSRLRSDDTAVYYCARERIYSNYWFFDVWGQGTTVTVSS
VL: DIVMTQSPSSLSASVGDRVTITCKASQNVYTAVAWYQQKPGKSPKLLIYSASNRYTGVPSRFSGSGSGTDFTLTISSLQPEDFATYFCQQLSSYPYTFGGGTKVEIK
Turning to B3, the IC50 was found to be 0.628 µg/mL in assay [1] and 0.579 µg/mL in assay [3]. Moreover, the figures for the concentration giving a half-maximal response (EC50) in assay [2] and in assay [4] were 0.00469 µg/mL and 0.0169 µg/mL, respectively.

B4: h011-3192 (antibody, V domains shown)
VH: QVQLVQSGAEVKKPGASVKVSCKASGYTFTGYTIHWVRQAPGQGLEWMGYINPSSTYTKFNQKFKDRVTMTRDTSISTAYMELSRLRSDDTAVYYCARERIYSNYWFFDVWGQGTTVTVSS
VL: DIVMTQSPSSLSASVGDRVTITCKASQNVYTEVAWYQQKPGKSPKLLIYSASNRYTGVPSRFSGSGSGTDFTLTISSLQPEDFATYFCQQYSSYPYTFGGGTKVEIK
As for B4, the IC50 in assay [1] was found to be 0.698 µg/mL; in assay [3], 2.36 µg/mL. Also, the EC50 in assay [2] is 0.00664 µg/mL; in assay [4], 0.127 µg/mL.

B5: h011-3195 (antibody, V domains shown)
VH: QVQLVQSGAEVKKPGASVKVSCKASGYTFTGYTIHWVRQAPGQGLEWMGYINPSSTYTKFNQKFKDRVTMTRDTSISTAYMELSRLRSDDTAVYYCARERIFSNYWFFDVWGQGTTVTVSS
VL: DIVMTQSPSSLSASVGDRVTITCKASQNVYTAVAWYQQKPGKSPKLLIYSASNRYTGVPSRFSGSGSGTDFTLTISSLQPEDFATYFCQQYSSYPYTFGGGTKVEIK
With B5, the values for the IC50 in assay [1] and in assay [3] were 2.25 µg/mL and 0.689 µg/mL, respectively. In addition, the figures for the EC50 in assay [2] and in assay [4] were 0.00679 µg/mL and 0.0218 µg/mL, respectively.

B6: h011-3133-WT: h011-3133-IgG1 format (antibody)
heavy: not shown
light: DIVMTQSPSSLSASVGDRVTITCKASQNVYTAVAWYQQKPGKSPKLLIYSASNRYTGVPSRFSGSGSGTDFTLTISSLQPEDFATYFCQQYSSYPYTFGGGTKVEIKRTVAAPSVFIFPPSDEQLKSGTASVVCLLNNFYPREAKVQWKVDNALQSGNSQESVTEQDSKDSTYSLSSTLTLSKADYEKHKVYACEVTHQGLSSPVTKSFNRGEC
notes: Human IgG1 heavy chain constant region, human kappa light chain
By Kd is commonly meant the equilibrium constant for the complex coming apart. A higher Kd goes with a looser complex. For B6, the Kd in assay [5] was < 0.0526 nM.

B7: h011-3133-YTE: h011-3133-IgG1-YTE format (antibody)
heavy: QVQLVQSGAEVKKPGASVKVSCKASGYTFTGYEIHWVRQAPGQGLEWMGYINPSATYTKFNQKFKDRVTMTRDTSISTAYMELSRLRSDDTAVYYCARERIYSNYWFFDVWGQGTTVTVSSASTKGPSVFPLAPSSKSTSGGTAALGCLVKDYFPEPVTVSWNSGALTSGVHTFPAVLQSSGLYSLSSVVTVPSSSLGTQTYICNVNHKPSNTKVDKKVEPKSCDKTHTCPPCPAPELLGGPSVFLFPPKPKDTLYITREPEVTCVVVDVSHEDPEVKFNWYVDGVEVHNAKTKPREEQYNSTYRVVSVLTVLHQDWLNGKEYKCKVSNKALPAPIEKTISKAKGQPREPQVYTLPPSRDELTKNQVSLTCLVKGFYPSDIAVEWESNGQPENNYKTTPPVLDSDGSFFLYSKLTVDKSRWQQGNVFSCSVMHEALHNHYTQKSLSLSPGK
light: DIVMTQSPSSLSASVGDRVTITCKASQNVYTAVAWYQQKPGKSPKLLIYSASNRYTGVPSRFSGSGSGTDFTLTISSLQPEDFATYFCQQYSSYPYTFGGGTKVEIKRTVAAPSVFIFPPSDEQLKSGTASVVCLLNNFYPREAKVQWKVDNALQSGNSQESVTEQDSKDSTYSLSSTLTLSKADYEKHKVYACEVTHQGLSSPVTKSFNRGEC
notes: Mutant human IgG1 (YTE: M252Y, S254T, T256E, EU numbering), human kappa light chain
On to B7, for which the Kd in assay [5] was < 0.0518 nM.
